In patent US20250340662A1 one finds Kd data, which are given here for 19 molecules.

Assay [1] concerns the target CD44v6 on cultured cancer cells (BHT-101, ACT-1, A431) (human) (UniProt P16070). In words: live BHT-101 cells; apparent KD.
Assay [2] shares this target. The experiment in a line: LigandTracer, 125I-IgG4 on BHT-101 cells.

B1: AL-MN114-435 hIgG4 (antibody, V domains shown)
VH: EVQLLESGGGLVQPGGSLRLSCAASGFTFSSYAMSWVRQAPGKGLEWVSAISAGGSSTFYADSVKGRFTISRDNSKNTLYLQMNSLRAEDTAVYYCARHYYSDSDYRSSAAMDYWGQGTLVTVSS
VL: DIQMTQSPSSLSASVGDRVTITCRASQSISSYLNWYQQKPGKAPKLLIYAASSLQSGVPSRFSGSGSGTDFTLTISSLQPEDFATYYCQQDLYLLTFGQGTKLEIK
B1: the Kd in assay [1] is less than 0.2 nM; in assay [2], 0.02 nM.

B2: AL-MN114-444 hIgG4 (antibody, V domains shown)
VH: EVQLLESGGGLVQPGGSLRLSCAASGFTFRSFAMSWVRQAPGKGLEWVSAISGGGSSTFYADSVKGRFTISRDNSKNTLYLQMNSLRAEDTAVYYCARHYYSDSDYRSSAAMDYWGQGTLVTVSS
VL: DIQMTQSPSSLSASVGDRVTITCRASQSIGSYLNWYQQKPGKAPKLLIYSASSLQSGVPSRFSGSGSGTDFTLTISSLQPEDFATYYCQQDLYLLTFGQGTKLEIK
Consider B2, for which the Kd in assay [1] is less than 0.2 nM; in assay [2], 0.02 nM.

B3: AL-MN114-429 hIgG4 (antibody, V domains shown)
VH: EVQLLESGGGLVQPGGSLRLSCAASGFSFSSFAMSWVRQAPGKGLEWVSAISAGGSSTYYADSVKGRFTISRDNSKNTLYLQMNSLRAEDTAVYYCARHYYSDSDYRSSAAMDYWGQGTLVTVSS
VL: DIQMTQSPSSLSASVGDRVTITCRASQSISSYLNWYQQKPGKAPKLLIYAASSLQSGVPSRFSGSGSGTDFTLTISSLQPEDFATYYCQQDLYLLTFGQGTKLEIK
With B3, the Kd in assay [1] was less than 0.2 nM; in assay [2] it was 0.06 nM.

B4: AL-MN114-452 hIgG4 (antibody, V domains shown)
VH: EVQLLESGGGLVQPGGSLRLSCAASGFSFSSYAMSWVRQAPGKGLEWVSAISAGGSSTFYADSVKGRFTISRDNSKNTLYLQMNSLRAEDTAVYYCARHYYSDSDYRSSAAMDYWGQGTLVTVSS
VL: DIQMTQSPSSLSASVGDRVTITCRASQSIGSYLNWYQQKPGKAPKLLIYSASSLQSGVPSRFSGSGSGTDFTLTISSLQPEDFATYYCQQDLYLLTFGQGTKLEIK
In the case of B4, in assay [1], the Kd was less than 0.2 nM.

B5: AL-MN114-423 hIgG4 (antibody, V domains shown)
VH: EVQLLESGGGLVQPGGSLRLSCAASGFTFSSYAMSWVRQAPGKGLEWVSAISAGGTSTYYADSVKGRFTISRDNSKNTLYLQMNSLRAEDTAVYYCARHYYSDSDYRSSAAMDYWGQGTLVTVSS
VL: DIQMTQSPSSLSASVGDRVTITCRASQSISSYLNWYQQKPGKAPKLLIYAASSLQSGVPSRFSGSGSGTDFTLTISSLQPEDFATYYCQQDLYLLTFGQGTKLEIK
In the case of B5, the Kd in assay [1] is less than 0.2 nM; in assay [2] it was 0.1 nM.

B6: AL-MN114-23 hIgG4 (antibody, V domains shown)
VH: EVQLLESGGGLVQPGGSLRLSCAASGFSFRNFAMSWVRQAPGKGLEWVSAISGGGGSTFYADSVKGRFTISRDNSKNTLYLQMNSLRAEDTAVYYCARHYYSDSDYRSSAAMDYWGQGTLVTVSS
VL: DIQMTQSPSSLSASVGDRVTITCRASQNISSYLNWYQQKPGKAPKLLIYSASILQSGVPSRFSGSGSGTDFTLTISSLQPEDFATYYCQQDLYLLTFGQGTKLEIK
In the case of B6, in assay [1], the Kd is less than 0.2 nM.

B7: AL-MN114-126 hIgG4 (antibody, V domains shown)
VH: EVQLLESGGGLVQPGGSLRLSCAASGFTFSSYAMSWVRQAPGKGLEWVSAISAGGSSTYYADSVKGRFTISRDNSKNTLYLQMNSLRAEDTAVYYCARHYYSDSDYRSSAAMDYWGQGTLVTVSS
VL: DIQMTQSPSSLSASVGDRVTITCRASQSISSYLNWYQQKPGKAPKLLIYAASSLQSGVPSRFSGSGSGTDFTLTISSLQPEDFATYYCQQDLYLLTFGQGTKLEIK
Regarding B7, the Kd in assay [1] was less than 0.2 nM; in assay [2], 0.04 nM.

B8: AL-MN114-18 hIgG4 (antibody, V domains shown)
VH: EVQLLESGGGLVQPGGSLRLSCAASGFSFGSFAMSWVRQAPGKGLEWVSAISGGGSSTYYADSVKGRFTISRDNSKNTLYLQMNSLRAEDTAVYYCARHYYSDSDYRSSAAMDYWGQGTLVTVSS
VL: DIQMTQSPSSLSASVGDRVTITCRASQTIASYLNWYQQKPGKAPKLLIYTASNLQSGVPSRFSGSGSGTDFTLTISSLQPEDFATYYCQQDLYLLTFGQGTKLEIK
As to B8, the Kd in assay [1] is less than 0.2 nM; in assay [2], 0.02 nM.

B9: AL-MN114-79 hIgG4 (antibody, V domains shown)
VH: EVQLLESGGGLVQPGGSLRLSCAASGFTFRSFAMSWVRQAPGKGLEWVSTISAGGSSTFYADSVKGRFTISRDNSKNTLYLQMNSLRAEDTAVYYCARHYYSDSDYRSSAAMDYWGQGTLVTVSS
VL: DIQMTQSPSSLSASVGDRVTITCRASQSIANYLNWYQQKPGKAPKLLIYAASTLQSGVPSRFSGSGSGTDFTLTISSLQPEDFATYYCQQDLYLLTFGQGTKLEIK
For the molecule B9, the figures for the Kd in assay [1] and in assay [2] were less than 0.2 nM and 0.03 nM, respectively.

B10: AL-MN114-439 hIgG4 (antibody, V domains shown)
VH: EVQLLESGGGLVQPGGSLRLSCAASGFSFGSFAMSWVRQAPGKGLEWVSAISAGGSSTFYADSVKGRFTISRDNSKNTLYLQMNSLRAEDTAVYYCARHYYSDSDYRSSAAMDYWGQGTLVTVSS
VL: DIQMTQSPSSLSASVGDRVTITCRASQSISSYLNWYQQKPGKAPKLLIYAASSLQSGVPSRFSGSGSGTDFTLTISSLQPEDFATYYCQQDLYLLTFGQGTKLEIK
Consider B10, for which the Kd in assay [1] was less than 0.2 nM.

B11: AL-MN114-451 hIgG4 (antibody, V domains shown)
VH: EVQLLESGGGLVQPGGSLRLSCAASGFTFSSYAMSWVRQAPGKGLEWVSAISAGGYSTYYADSVKGRFTISRDNSKNTLYLQMNSLRAEDTAVYYCARHYYSDSDYRSSAAMDYWGQGTLVTVSS
VL: DIQMTQSPSSLSASVGDRVTITCRASQSIGSYLNWYQQKPGKAPKLLIYTASTLQSGVPSRFSGSGSGTDFTLTISSLQPEDFATYYCQQDLYLLTFGQGTKLEIK
Take B11: the results for the Kd in assay [1] and in assay [2] were less than 0.2 nM and 0.03 nM, respectively.

B12: AL-MN114-93 hIgG4 (antibody, V domains shown)
VH: EVQLLESGGGLVQPGGSLRLSCAASGFSFGSFAMSWVRQAPGKGLEWVSAISAGGSSTYYADSVKGRFTISRDNSKNTLYLQMNSLRAEDTAVYYCARHYYSDSDYRSSAAMDYWGQGTLVTVSS
VL: DIQMTQSPSSLSASVGDRVTITCRASQSISSYLNWYQQKPGKAPKLLIYAASSLQSGVPSRFSGSGSGTDFTLTISSLQPEDFATYYCQQDLYLLTFGQGTKLEIK
Turning to B12, in assay [1], the Kd is less than 0.2 nM.

B13: AL-MN114-19 hIgG4 (antibody, V domains shown)
VH: EVQLLESGGGLVQPGGSLRLSCAASGFSFGSYAMSWVRQAPGKGLEWVSAISGGGSSTFYADSVKGRFTISRDNSKNTLYLQMNSLRAEDTAVYYCARHYYSDSDYRSSAAMDYWGQGTLVTVSS
VL: DIQMTQSPSSLSASVGDRVTITCRASQSISSYLNWYQQKPGKAPKLLIYSASSLQSGVPSRFSGSGSGTDFTLTISSLQPEDFATYYCQQDLYLLTFGQGTKLEIK
As for B13, the figures for the Kd in assay [1] and in assay [2] were less than 0.2 nM and 0.04 nM, respectively.

B14: AL-MN114-42 hIgG4 (antibody, V domains shown)
VH: EVQLLESGGGLVQPGGSLRLSCAASGFTFSSYAMSWVRQAPGKGLEWVSAISGGGYSTYYADSVKGRFTISRDNSKNTLYLQMNSLRAEDTAVYYCARHYYSDSDYRSSAAMDYWGQGTLVTVSS
VL: DIQMTQSPSSLSASVGDRVTITCRASQTIGSYLNWYQQKPGKAPKLLIYSASILQSGVPSRFSGSGSGTDFTLTISSLQPEDFATYYCQQDLYLLTFGQGTKLEIK
In the case of B14, the Kd was less than 0.2 nM in assay [1] and 0.04 nM in assay [2].

B15: AL-MN114-71 hIgG4 (antibody, V domains shown)
VH: EVQLLESGGGLVQPGGSLRLSCAASGFSFRSFAMSWVRQAPGKGLEWVSAISGGGSSTFYADSVKGRFTISRDNSKNTLYLQMNSLRAEDTAVYYCARHYYSDSDYRSSAAMDYWGQGTLVTVSS
VL: DIQMTQSPSSLSASVGDRVTITCRASQSISSYLNWYQQKPGKAPKLLIYAASTLQSGVPSRFSGSGSGTDFTLTISSLQPEDFATYYCQQDLYLLTFGQGTKLEIK
Consider B15, for which the Kd in assay [1] was less than 0.2 nM; in assay [2] it was 0.02 nM.

B16: AL-MN114-460 hIgG4 (antibody, V domains shown)
VH: EVQLLESGGGLVQPGGSLRLSCAASGFSFGSYAMSWVRQAPGKGLEWVSAISAGGSSTYYADSVKGRFTISRDNSKNTLYLQMNSLRAEDTAVYYCARHYYSDSDYRSSAAMDYWGQGTLVTVSS
VL: DIQMTQSPSSLSASVGDRVTITCRASQSIGSYLNWYQQKPGKAPKLLIYSASSLQSGVPSRFSGSGSGTDFTLTISSLQPEDFATYYCQQDLYLLTFGQGTKLEIK
As for B16, the Kd in assay [1] is less than 0.2 nM.

B17: AL-MN114-14 hIgG4 (antibody, V domains shown)
VH: EVQLLESGGGLVQPGGSLRLSCAASGFTFSSYAMSWVRQAPGKGLEWVSAISGSGRSTFYADSVKGRFTISRDNSKNTLYLQMNSLRAEDTAVYYCARHYYSDSDYRSSAAMDYWGQGTLVTVSS
VL: DIQMTQSPSSLSASVGDRVTITCRASQSISSYLNWYQQKPGKAPKLLIYAASSLQSGVPSRFSGSGSGTDFTLTISSLQPEDFATYYCQQDLYLLTFGQGTKLEIK
Turning to B17, the Kd in assay [1] is less than 0.2 nM.

B18: AL-MN114-145 hIgG4 (antibody, V domains shown)
VH: EVQLLESGGGLVQPGGSLRLSCAASGFSFSSFAMSWVRQAPGKGLEWVSAISAGGSSTFYADSVKGRFTISRDNSKNTLYLQMNSLRAEDTAVYYCARHYYSDSDYRSSAAMDYWGQGTLVTVSS
VL: DIQMTQSPSSLSASVGDRVTITCRASQSIGSYLNWYQQKPGKAPKLLIYSASNLQSGVPSRFSGSGSGTDFTLTISSLQPEDFATYYCQQDLYLLTFGQGTKLEIK
B18: in assay [1], the Kd is less than 0.2 nM.

B19: AL-MN114-132 hIgG4 (antibody, V domains shown)
VH: EVQLLESGGGLVQPGGSLRLSCAASGFTFSSYAMSWVRQAPGKGLEWVSAISGGGSSTYYADSVKGRFTISRDNSKNTLYLQMNSLRAEDTAVYYCARHYYSDSDYRSSAAMDYWGQGTLVTVSS
VL: DIQMTQSPSSLSASVGDRVTITCRASQSISSYLNWYQQKPGKAPKLLIYAASSLQSGVPSRFSGSGSGTDFTLTISSLQPEDFATYYCQQDLYLLTFGQGTKLEIK
With B19, in assay [1], the Kd is less than 0.2 nM.
